Values joined by “and” are separate entries in the source; they are usually repeats but may differ in a detail not shown here. Equal values may be shown once. Read-outs that look alike come from different tables or passages of the source.
B2: S135Q-HSPB5, full-length oligomer (natural protein)
chain: MDIAIHHPWIRRPFFPFHSPSRLFDQFFGEHLLESDLFPTSTSLSPFYLRPPSFLRAPSWFDTGLSEMRLEKDRFSVNLDVKHFSPEELKVKVLGDVIEVHGKHEERQDEHGFISREFHRKYRIPADVDPLTITQSLSSDGVLTVNGPRKQVSGPERTIPITREEKPAVTAAPKK

What was measured:
[1] = target: B2; assay: SEC
SEC = target: the molecule itself; assay: SEC
[2] = target: T1, Alpha-B-crystallin CTR CTR (Homo sapiens, UniProt P02511)
T1 chain: ERTIPITRE

[3] = target: the molecule itself
[4] = target: B2; assay: SEC; remark: listed apart in the source
[5] = target: T2, E117C-HSPB5, full length (oligomeric) (human, UniProt P02511 1-175, E117C); assay: cross-linking
T2 sequence: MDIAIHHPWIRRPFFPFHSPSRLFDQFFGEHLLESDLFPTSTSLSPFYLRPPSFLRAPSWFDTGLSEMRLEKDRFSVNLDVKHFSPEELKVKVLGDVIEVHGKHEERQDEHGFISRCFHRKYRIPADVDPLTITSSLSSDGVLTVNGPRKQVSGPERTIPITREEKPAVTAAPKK

[6] = target: T3, S135Q/E117C full-length HSPB5 oligomer (human, UniProt P02511 1-175, E117C | S135Q); assay: cross-linking
T3 sequence: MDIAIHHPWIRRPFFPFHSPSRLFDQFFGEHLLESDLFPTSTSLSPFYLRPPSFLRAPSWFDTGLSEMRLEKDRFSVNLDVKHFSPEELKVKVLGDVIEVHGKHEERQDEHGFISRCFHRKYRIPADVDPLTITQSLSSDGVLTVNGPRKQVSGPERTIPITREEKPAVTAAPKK

[7] = target: T4, ΔN-HSPB6 (residues 65-160) (human, UniProt O14558 65-160); assay: NMR titration
T4 sequence: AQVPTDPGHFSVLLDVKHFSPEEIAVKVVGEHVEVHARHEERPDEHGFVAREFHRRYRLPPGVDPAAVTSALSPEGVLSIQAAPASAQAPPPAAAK

B1: HSPB6, full length, C46S (natural protein)
chain: MEIPVPVQPSWLRRASAPLPGLSAPGRLFDQRFGEGLLEAELAALSPTTLAPYYLRAPSVALPVAQVPTDPGHFSVLLDVKHFSPEEIAVKVVGEHVEVHARHEERPDEHGFVAREFHRRYRLPPGVDPAAVTSALSPEGVLSIQAAPASAQAPPPAAAK
binding result [1]: binds
stoichiometry N (SEC): 2 and 4

B2
binding result (SEC): binds

B3: Alpha-B-crystallin ACD ACD (protein)
chain: GLSEMRLEKDRFSVNLDVKHFSPEELKVKVLGDVIEVHGKHEERQDEHGFISREFHRKYRIPADVDPLTITSSLSSDGVLTVNGPRKQV
Kd [2]: ~100 µM
Kd [3]: ~2 µM
binding result [4]: binds

B4: E117C-ACD-only (HSPB5 residues 64-152, E117C) (domain or fragment)
chain: GLSEMRLEKDRFSVNLDVKHFSPEELKVKVLGDVIEVHGKHEERQDEHGFISRCFHRKYRIPADVDPLTITSSLSSDGVLTVNGPRKQV
modifications: disulfide-locked dimer through C117 under nonreducing conditions
binding result [5]: binds
binding result [6]: binds

PERTIPITREEK [HSPB5-CTR peptide PERTIPITREEK]
binding result [7]: binds
